Substitutions are numbered along the chain they refer to.
B1: 5p-25 (VHH)
VHH: HVQLVESGGGLVQAGGSLRLSCAASGHISSRYAMAWFRQGPGKERDFVAGMSSGASTFYAESVKGRFTLSRDNAKNAMYLQMNSLKPEDTAVYYCAADSSPLRYGLSYSSNRYDYWGQGTQVTVSS
B2: 5p-47 (VHH)
VHH: DVQLVESGGGLVQAGGSLRLSCAASGRTFTFNRFAMGWFRQAPEKEREFVAAISRTGRSTEYADSVKGRFAISRDNTKNTVYLQMNSLKPEDTAVYYCAALEAPLLHLIATQRRQYEYWGQGTQVTVSS
B3: 5p-64 (VHH)
VHH: QVQLVESGGGLVQAGGSLRLSCAASGRTFSTYAMAWFRQAPGKEREFVAGVARSADTTYYGDSVKGRFTISRDNAKNEVNLQMSSLKPEDTAVYYCAARSVIQYGIVPGNDFHYEYWGQGTQVTVSS
notes: class V psNb
B4: 5p-175 (VHH)
VHH: B3 VHH with G105S
B5: 5p-63 (VHH)
VHH: DVQLVESGGGLVQAGGSLRLSCAASGRSFSTYAMGWFRQAPGKEREFVAGVARSASTTYYTDSVKGRFTISRDNAKNEVYLQMNSLKPEDTAVYYCAARSVIQDTVVPGNPFHYEYWGQGTQVTVSS
B6: 5p-58 (VHH)
VHH: HVQLVESGGGLVQAGESLRLLCVASGSIDSINAMGWFRQAPGKQRELVASISNMHTTMYAESVKGRFTISRDNFKNTADLQMNSLKPEDTAIYFCNLRQGCSYNGCDEYWGQGTQVTVSS
B7: 5p-167 (VHH)
VHH: B6 VHH with H1Q, E16G, F74A, G100R
B8: 5p-165 (VHH)
VHH: B6 VHH with L21S, D29S, M54I, M58L, N73T, F74A, N83D, F94Y, G100D
B9: 5p-61 (VHH)
VHH: QVQLVESGGGLVQAGGSLRLACAGSGGTFSSYIMAWFHQAPGKEREFIAGISKTGSDTYYADSVKGRFTISRDNAKNTVYLQMNSLKPEDTAVYYCAARRGPLITTSRLHYDFWGQGTQVTVSS
B10: 4P-92 (VHH)
VHH: QVQLVESGGGLVQTGGSLRLSCAVSGYTFSTFPTAWFRQAPGKEREFVAGIRWNGGSRDYTEYADFVKGRFTISRDNAKNMVYLQMISLKPEDTALYYCAASHGVIDGTSANDYRYWGQGTQVTVSS
B11: 5p-3 (VHH)
VHH: QVQLVESGGGLVQAGDSLRLSCAASGRTISTFPMGWFRQAPGKEREFVATITRTGFGTYYSDSVKGRFTISRDNAKNTVFLQMNSLKPEDTALYYCAAAKTTDWVTRAPREMHEYAYWGQGTQVTVSS
B12: 5p-68 (VHH)
VHH: QVQLVESGGGLVQAGGSLRLSCVASGRTFSTSHMGWFRQAPGKEREFVAVISRSGSSTLDADSVKGRFTISRDNAKNTVYLQMNSLKPEDTAVYYCAGSRTAGLTSNRFLYDSWGQGTQVTVSS
B13: 4P-46 (VHH)
VHH: HVQLVESGGGLVQAGGSLRLSCAASRIFSTSAMGWFRQAPGKEREFVAAISWSGTNTHYADSVKGRFAISTDNAKNTVYLQMNSLKPEDTAVYYCAQGGWGISQPIEVDYWGKGTQVTVSS
B14: 5p-127 (VHH)
VHH: B13 VHH with H1E, N56D, D61N, N73A, K86E, I102V, S103R, I106V
B15: 5p-124 (VHH)
VHH: B13 VHH with G16D, T55G, T57V, A60L, T71A, A74S, N76S, Y79F, S103R, P105V
B16: 4P-47 (VHH)
VHH: B13 VHH with S25D, R26A, I27R, T55A, S62T, A68T, N73T, S103T, E107S
B17: 5p-37 (VHH)
VHH: B13 VHH with H1Q, A60T, S62P, N76S, S103R
B18: 5p-128 (VHH)
VHH: B13 VHH with E45Q, A49G, I50T, S51D, T57I, I102V
B19: 5p-125 (VHH)
VHH: B13 VHH with G16D, S62P, I102L, S103R
B20: 5p-26 (VHH)
VHH: DVQLVESGGGLVQAGGSLRLSCAASGRTLRSYNMGWFRQPPGKEREFVAALSWTGLGTYYADSVKGRFTISRDITKNTLYLQMDSLQPEDTANYYCAADSTLDRLHSAESDYRYWGQGTQVTVSS
B21: 4P-44 (VHH)
VHH: DVQLVESGGGLVQAGGSLRLSCAASGRTFSRYAAGWFRQAPGKEREFVAVIEWNGDSAYYADSVKGRFTISRDNAKNTVYLQMNRLKPEDTAVYICAVGGNHYSRSKYYTADEYDYWGQGTQVTVSS
B22: 5p-117 (VHH)
VHH: DVQLVESGGGLVQAGESLRLSCAASGRTFRNFAAGWFRQTPGKDREFVAVIEYNGDSAYYADSVKGRFTISRDNAKNTVYLQMNRLKPGDTAVYICAIGGNHYDPSKYYIADEYDYWGQGTQVTVSS
B23: 5p-120 (VHH)
VHH: B21 VHH with D1H, N54D, T110N, A111L
B24: 4P-42 (VHH)
VHH: B21 VHH with D1H, N54D, S57N, R105P, S106N
B25: 5p-119 (VHH)
VHH: B21 VHH with D1Q, G26R, R31N, D56E, V93I, V98I, T110I
B26: 5p-121 (VHH)
VHH: B21 VHH with E46S, N54D, S57T, A61S, V79L, R105S, T110I
B27: 5p-34 (VHH)
VHH: B21 VHH with D1Q, A23T, A61T, V64A, A75T, V98I, R105P, T110I
B28: 4P-71 (VHH)
VHH: B21 VHH with D1H, Y32F, E52D, D56G, E89G, V98I, S104D, R105P, K107R
B29: 5p-1 (VHH)
VHH: QVQLVESGGGLVQAGGSLRLSCAVSGRTGNRWPMGWFRQAPGKEREFVATISWSDSRTYYADSVKGRFTISRDNAKNTVFLQMASLKPEDTAVYYCAAAHARVYGANWSSSNRDDYDSWGQGTQVTVSS
B30: 5p-5 (VHH)
VHH: B29 VHH with H100T
B31: 4P-1 (VHH)
VHH: B29 VHH with Q1D, V24A, N30S, W32Y, D114Y
B32: 5p-2 (VHH)
VHH: B29 VHH with N30S, S71A, A101G, S111T, D114Y
B33: 5p-13 (VHH)
VHH: HVQLVESGGGLVQPGGSLRLSCVASGLTFSRYTMAWFRQAPGKDRIFVAAVSKPGGSTYYADSVKGRFTISRDNAKNTVYLQMNSLKPDDTAVYSCAADLTVLLTANPAHYNYWGHGTQVTVSS
B34: 5p-40 (VHH)
VHH: B33 VHH with H1D, G16D, K76Q, D99G, H116Q
B35: 5p-14 (VHH)
VHH: B33 VHH with H1Q, D44E, I46V, M83T, N84S, S85R, K87N, A109G, N112K, H116Q
B36: 5p-59 (VHH)
VHH: QVQLVESGGGLVQAGGSLRLSCAVSGRTISTFGMAWFRQAPGKVREFVATITRDEDLTLYADSVKGRFTISRDTAKNTVFLQMNSLKIEDTALYYCAVRRDDSWGYSRQSIEYDYWGQGTQVTVSS

biological target: RBDSARS-CoV-2 (SARS-CoV-2 S protein residues 319-539, C-terminal His-tag) (SARS-CoV-2, UniProt P0DTC2 319-539); test: ELISA

Question: For B1, which IC50 is on record?
Answer: < 10 nM

Question: How did the IC50 turn out when B2 was run?
Answer: < 10 nM

Question: B3 was tested. Which IC50 did it give?
Answer: < 10 nM

Question: How did the IC50 turn out when B4 was run?
Answer: < 10 nM

Question: Which IC50 does the source give for B5 here?
Answer: < 10 nM

Question: B6 was tested. Which IC50 did it give?
Answer: < 10 nM

Question: B7 was tested. Which IC50 did it give?
Answer: < 10 nM

Question: B8 was tested. Which IC50 did it give?
Answer: < 10 nM

Question: How did the IC50 turn out when B9 was run?
Answer: < 10 nM

Question: For B10, which IC50 is on record?
Answer: < 10 nM

Question: How did the IC50 turn out when B11 was run?
Answer: < 10 nM

Question: B12 was tested. Which IC50 did it give?
Answer: < 10 nM

Question: B13 was tested. Which IC50 did it give?
Answer: < 10 nM

Question: How did the IC50 turn out when B14 was run?
Answer: < 10 nM

Question: Which IC50 does the source give for B15 here?
Answer: < 10 nM

Question: How did the IC50 turn out when B16 was run?
Answer: < 10 nM

Question: With B17 as the binder, how does the IC50 read?
Answer: < 10 nM

Question: Which IC50 does the source give for B18 here?
Answer: < 10 nM

Question: How did the IC50 turn out when B19 was run?
Answer: < 10 nM

Question: Which IC50 does the source give for B20 here?
Answer: < 10 nM

Question: How did the IC50 turn out when B21 was run?
Answer: < 10 nM

Question: B22 was tested. Which IC50 did it give?
Answer: < 10 nM

Question: For B23, which IC50 is on record?
Answer: < 10 nM

Question: Which IC50 does the source give for B24 here?
Answer: < 10 nM

Question: How did the IC50 turn out when B25 was run?
Answer: < 10 nM

Question: How did the IC50 turn out when B26 was run?
Answer: < 10 nM

Question: With B27 as the binder, how does the IC50 read?
Answer: < 10 nM

Question: B28 was tested. Which IC50 did it give?
Answer: < 10 nM

Question: Which IC50 does the source give for B29 here?
Answer: 10 to 100 nM

Question: B30 was tested. Which IC50 did it give?
Answer: 10 to 100 nM

Question: With B31 as the binder, how does the IC50 read?
Answer: 10 to 100 nM

Question: Which IC50 does the source give for B32 here?
Answer: 10 to 100 nM

Question: With B33 as the binder, how does the IC50 read?
Answer: < 10 nM

Question: How did the IC50 turn out when B34 was run?
Answer: < 10 nM

Question: With B35 as the binder, how does the IC50 read?
Answer: < 10 nM

Question: Which IC50 does the source give for B36 here?
Answer: < 10 nM

biological target: RBDSARS-CoV (SARS-CoV S protein residues 318-510, C-terminal His-tag) (SARS-CoV, UniProt P59594 318-510); test: ELISA

Question: Which IC50 does the source give for B1 here?
Answer: < 10 nM

Question: How did the IC50 turn out when B2 was run?
Answer: 1000 to 8000 nM

Question: With B3 as the binder, how does the IC50 read?
Answer: < 10 nM

Question: Which IC50 does the source give for B4 here?
Answer: < 10 nM

Question: Which IC50 does the source give for B5 here?
Answer: < 10 nM

Question: Which IC50 does the source give for B6 here?
Answer: 1000 to 8000 nM

Question: Which IC50 does the source give for B7 here?
Answer: > 8000 nM

Question: With B8 as the binder, how does the IC50 read?
Answer: 10 to 100 nM

Question: For B9, which IC50 is on record?
Answer: 10 to 100 nM

Question: B10 was tested. Which IC50 did it give?
Answer: 1000 to 8000 nM

Question: B11 was tested. Which IC50 did it give?
Answer: 10 to 100 nM

Question: With B12 as the binder, how does the IC50 read?
Answer: 10 to 100 nM

Question: B13 was tested. Which IC50 did it give?
Answer: 10 to 100 nM

Question: With B14 as the binder, how does the IC50 read?
Answer: < 10 nM

Question: Which IC50 does the source give for B15 here?
Answer: < 10 nM

Question: For B16, which IC50 is on record?
Answer: < 10 nM

Question: For B17, which IC50 is on record?
Answer: 10 to 100 nM

Question: Which IC50 does the source give for B18 here?
Answer: 10 to 100 nM

Question: How did the IC50 turn out when B19 was run?
Answer: 10 to 100 nM

Question: With B20 as the binder, how does the IC50 read?
Answer: > 8000 nM

Question: Which IC50 does the source give for B21 here?
Answer: 100 to 1000 nM

Question: For B22, which IC50 is on record?
Answer: < 10 nM

Question: B23 was tested. Which IC50 did it give?
Answer: < 10 nM

Question: With B24 as the binder, how does the IC50 read?
Answer: < 10 nM

Question: For B25, which IC50 is on record?
Answer: < 10 nM

Question: With B26 as the binder, how does the IC50 read?
Answer: < 10 nM

Question: How did the IC50 turn out when B27 was run?
Answer: < 10 nM

Question: Which IC50 does the source give for B28 here?
Answer: 10 to 100 nM

Question: How did the IC50 turn out when B29 was run?
Answer: 100 to 1000 nM

Question: With B30 as the binder, how does the IC50 read?
Answer: 10 to 100 nM

Question: B31 was tested. Which IC50 did it give?
Answer: 1000 to 8000 nM

Question: For B32, which IC50 is on record?
Answer: 10 to 100 nM

Question: With B33 as the binder, how does the IC50 read?
Answer: < 10 nM

Question: With B34 as the binder, how does the IC50 read?
Answer: < 10 nM

Question: B35 was tested. Which IC50 did it give?
Answer: < 10 nM

Question: B36 was tested. Which IC50 did it give?
Answer: > 8000 nM

From patent US20250002563A1 (UNIVERSITY OF PITTSBURGH OF THE COMMONWEALTH SYSTEM OF …, published 2025)
